# Measurements reported in patent EP1832653A1 (INSTITUTE OF VIROLOGY, dated 2007).
# B1: oligopeptide … (aa 75-98) [SEQ ID NO: 106] (peptide)
# peptide: EDPPGEEDLPGEEDLPGEEDLPEV
# notes: Synthetic; cysteine added onto the C-end; C-terminal acid
# B2: phage-displayed heptapeptide of SEQ ID NO: 137 (without the added alanines), Ph.D.-7 library (peptide)
# peptide: KKMKRRK
# notes: Residues 2-8 follow from 'after adding alanine on both sides'
# What was measured:
# [1] = target: B1; assay: phage display panning, 5 cycles, on immobilized peptide SEQ ID NO: 106
# [2] = target: T1, monoclonal antibody M75 (MAb M75), secreted from the hybridoma VU-M75, ATCC HB 11128; assay: competition ELISA: peptide in solution against immobilized GST-MN for M75
# T1 construct: also called MAb 75
Binder,binding result [1],IC50 [2]
"SASAPVS [phage-displayed heptapeptide of SEQ ID NO: 139 (without the added alanines), Ph.D.-7 library]",binds,–
B1,–,1 ng/mL
B2,binds,–
"ITFNAQY [phage-displayed heptapeptide of SEQ ID NO: 138 (without the added alanines), Ph.D.-7 library]",binds,–
